Patent publication US20180155451A1 (published 2018)

T1: FcγRIIb (human, UniProt P31994 43-217)
T1 construct: extracellular domain; also called FcgRIIb; 2b; not shown: His tag at the C terminus
T1 sequence (looked up): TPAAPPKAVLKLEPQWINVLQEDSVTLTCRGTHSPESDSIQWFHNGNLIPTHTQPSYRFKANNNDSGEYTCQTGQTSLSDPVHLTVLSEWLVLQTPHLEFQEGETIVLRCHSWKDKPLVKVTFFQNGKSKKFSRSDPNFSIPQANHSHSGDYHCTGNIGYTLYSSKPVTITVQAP

T2: FcγRIIb extracellular domain with C-terminal His tag (human, UniProt P31994 43-217)
T2 construct: extracellular domain; Expressed in FreeStyle293 cells; analyte in the Biacore assay; also called FcgRIIb; 2b; not shown: His tag at the C terminus
T2 sequence (looked up): T1 sequence (looked up)

B1: GpH7-A5/GpH7-B3 variant D265_20W/GpL16-k0 (antibody, human IgG1, kappa)
heavy 1: not shown
heavy 2: not shown
light: DIVMTQSPLSLPVTPGEPASISCQASESLVHSNRNTYLHWYLQKPGQSPQLLIYKVSNRFSGVPDRFSGSGSGTDFTLKISRVEAEDVGVYYCSQNTHVPPTFGQGTKVEIERTVAAPSVFIFPPSDEQLKSGTASVVCLLNNFYPREAKVQWKVDNALQSGNSQESVTEQDSKDSTYSLSSTLTLSKADYEKHKVYACEVTHQGLSSPVTKSFNRGEC
notes: He Ab: mutation only in the GpH7-B3 H chain; EU numbering; also called He Ab
B2: GpH7-A5/GpH7-B3 variant S267_11K/GpL16-k0 (antibody, human IgG1, kappa)
heavy 1: not shown
heavy 2: not shown
light: B1 light
notes: as for B1
B3: GpH7-A5/GpH7-B3 variant H268_06M/GpL16-k0 (antibody, human IgG1, kappa)
heavy 1: not shown
heavy 2: not shown
light: B1 light
notes: as for B1
B4: GpH7-A5/GpH7-B3 variant V266_18N/GpL16-k0 (antibody, human IgG1, kappa)
heavy 1: not shown
heavy 2: not shown
light: B1 light
notes: as for B1
B5: GpH7-A5/GpH7-B3 variant S239_20W/GpL16-k0 (antibody, human IgG1, kappa)
heavy 1: not shown
heavy 2: not shown
light: B1 light
notes: as for B1
B6: GpH7-A5/GpH7-B3 variant V266_05P/GpL16-k0 (antibody, human IgG1, kappa)
heavy 1: not shown
heavy 2: not shown
light: B1 light
notes: as for B1
B7: GpH7-A5/GpH7-B3 variant S267_20W/GpL16-k0 (antibody, human IgG1, kappa)
heavy 1: not shown
heavy 2: not shown
light: B1 light
notes: as for B1
B8: GpH7-A5/GpH7-B3 variant V266_10E/GpL16-k0 (antibody, human IgG1, kappa)
heavy 1: not shown
heavy 2: not shown
light: B1 light
notes: as for B1
B9: GpH7-A5/GpH7-B3 variant S267_18N/GpL16-k0 (antibody, human IgG1, kappa)
heavy 1: not shown
heavy 2: not shown
light: B1 light
notes: as for B1
B10: GpH7-A5/GpH7-B3 variant S267_04F/GpL16-k0 (antibody, human IgG1, kappa)
heavy 1: not shown
heavy 2: not shown
light: B1 light
notes: as for B1
B11: GpH7-A5/GpH7-B3 variant V266_01G/GpL16-k0 (antibody, human IgG1, kappa)
heavy 1: not shown
heavy 2: not shown
light: B1 light
notes: as for B1
B12: GpH7-A5/GpH7-B3 variant S267_15Y/GpL16-k0 (antibody, human IgG1, kappa)
heavy 1: not shown
heavy 2: not shown
light: B1 light
notes: as for B1
B13: GpH7-A5/GpH7-B3 variant V266_13S/GpL16-k0 (antibody, human IgG1, kappa)
heavy 1: not shown
heavy 2: not shown
light: B1 light
notes: as for B1
B14: GpH7-A5/GpH7-B3 variant V266_16H/GpL16-k0 (antibody, human IgG1, kappa)
heavy 1: not shown
heavy 2: not shown
light: B1 light
notes: as for B1
B15: GpH7-A5/GpH7-B3 variant S267_16H/GpL16-k0 (antibody, human IgG1, kappa)
heavy 1: not shown
heavy 2: not shown
light: B1 light
notes: as for B1
B16: GpH7-A5/GpH7-B3 variant V266_09D/GpL16-k0 (antibody, human IgG1, kappa)
heavy 1: not shown
heavy 2: not shown
light: B1 light
notes: as for B1
B17: GpH7-A5/GpH7-B3 variant S267_12R/GpL16-k0 (antibody, human IgG1, kappa)
heavy 1: not shown
heavy 2: not shown
light: B1 light
notes: as for B1
B18: GpH7-A5/GpH7-B3 variant S267_05P/GpL16-k0 (antibody, human IgG1, kappa)
heavy 1: not shown
heavy 2: not shown
light: B1 light
notes: as for B1
B19: GpH7-A5/GpH7-B3 variant V266_15Y/GpL16-k0 (antibody, human IgG1, kappa)
heavy 1: not shown
heavy 2: not shown
light: B1 light
notes: as for B1
B20: GpH7-A5/GpH7-B3 variant V266_20W/GpL16-k0 (antibody, human IgG1, kappa)
heavy 1: not shown
heavy 2: not shown
light: B1 light
notes: as for B1
B21: GpH7-A5/GpH7-B3 variant V266_04F/GpL16-k0 (antibody, human IgG1, kappa)
heavy 1: not shown
heavy 2: not shown
light: B1 light
notes: as for B1
B22: GpH7-A5/GpH7-B3 variant V266_11K/GpL16-k0 (antibody, human IgG1, kappa)
heavy 1: not shown
heavy 2: not shown
light: B1 light
notes: as for B1
B23: GpH7-A5/GpH7-B3 variant E269_01G/GpL16-k0 (He Ab) (antibody, human IgG1, kappa)
heavy 1: not shown
heavy 2: not shown
light: B1 light
notes: Heterodimerized anti-glypican-3 IgG1; the mutation stands in the GpH7-B3 chain only
B24: GpH7-A5/GpH7-B3 variant E269_02A/GpL16-k0 (He Ab) (antibody, human IgG1, kappa)
heavy 1: not shown
heavy 2: not shown
light: B1 light
notes: as for B23
B25: GpH7-A5/GpH7-B3 variant E269_05P/GpL16-k0 (He Ab) (antibody, human IgG1, kappa)
heavy 1: not shown
heavy 2: not shown
light: B1 light
notes: as for B23
B26: GpH7-A5/GpH7-B3 variant E269_08L/GpL16-k0 (He Ab) (antibody, human IgG1, kappa)
heavy 1: not shown
heavy 2: not shown
light: B1 light
notes: as for B23
B27: GpH7-A5/GpH7-B3 variant E269_13S/GpL16-k0 (He Ab) (antibody, human IgG1, kappa)
heavy 1: not shown
heavy 2: not shown
light: B1 light
notes: as for B23
B28: GpH7-A5/GpH7-B3 variant E269_06M/GpL16-k0 (He Ab) (antibody, human IgG1, kappa)
heavy 1: not shown
heavy 2: not shown
light: B1 light
notes: as for B23
B29: GpH7-A5/GpH7-B3 variant E269_04F/GpL16-k0 (He Ab) (antibody, human IgG1, kappa)
heavy 1: not shown
heavy 2: not shown
light: B1 light
notes: as for B23
B30: GpH7-A5/GpH7-B3 variant E269_11K/GpL16-k0 (He Ab) (antibody, human IgG1, kappa)
heavy 1: not shown
heavy 2: not shown
light: B1 light
notes: as for B23
B31: GpH7-A5/GpH7-B3 variant E269_14T/GpL16-k0 (He Ab) (antibody, human IgG1, kappa)
heavy 1: not shown
heavy 2: not shown
light: B1 light
notes: as for B23
B32: GpH7-A5/GpH7-B3 variant E269_12R/GpL16-k0 (He Ab) (antibody, human IgG1, kappa)
heavy 1: not shown
heavy 2: not shown
light: B1 light
notes: as for B23
B33: GpH7-A5/GpH7-B3 variant E269_03V/GpL16-k0 (He Ab) (antibody, human IgG1, kappa)
heavy 1: not shown
heavy 2: not shown
light: B1 light
notes: as for B23
B34: GpH7-A5/GpH7-B3 variant E269_16H/GpL16-k0 (He Ab) (antibody, human IgG1, kappa)
heavy 1: not shown
heavy 2: not shown
light: B1 light
notes: as for B23
B35: GpH7-A5/GpH7-B3 variant E269_15Y/GpL16-k0 (He Ab) (antibody, human IgG1, kappa)
heavy 1: not shown
heavy 2: not shown
light: B1 light
notes: as for B23
B36: GpH7-A5/GpH7-B3 variant E269_07I/GpL16-k0 (He Ab) (antibody, human IgG1, kappa)
heavy 1: not shown
heavy 2: not shown
light: B1 light
notes: as for B23

target: T3, FcγRIa (human, UniProt P12314 16-292); experiment: SPR; He/Con_1a divided by He/Con_2b (FcγRIIb as reference)
T3 construct: extracellular domain; also called FcgRI; 1a; not shown: His tag at the C terminus
T3 sequence (P12314 16-292): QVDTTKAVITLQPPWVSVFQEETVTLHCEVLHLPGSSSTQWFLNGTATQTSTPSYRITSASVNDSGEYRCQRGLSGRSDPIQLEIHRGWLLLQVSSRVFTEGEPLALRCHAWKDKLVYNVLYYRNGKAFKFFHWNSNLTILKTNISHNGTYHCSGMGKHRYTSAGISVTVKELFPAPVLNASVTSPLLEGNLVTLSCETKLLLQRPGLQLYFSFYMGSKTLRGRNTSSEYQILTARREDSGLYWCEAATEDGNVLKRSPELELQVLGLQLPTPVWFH

Ia/IIb He_1a/2b [ratio]	Binder
45.6	B1
7.65	B2
1.59	B3
1.43	B4
2.06	B5
205	B6
1.74	B7
5.37	B8
2.15	B9
2.04	B10
1.77	B11
2.48	B12
1.67	B13
1.56	B14
1.52	B15
7.88	B16
8.21	B17
2.91	B18
1.89	B19
1.27	B20
1.68	B21
63.5	B22

target: T3, FcγRIa; experiment: SPR (Biacore), captured antibody, soluble FcγR; relative to GpH7-A5/GpH7-B3/GpL16-k0

He/Con_1a	Binder
51.5 relative, HeCon Ab = 100	B1
93.3 relative, HeCon Ab = 100	B2
105 relative, HeCon Ab = 100	B3
99.5 relative, HeCon Ab = 100	B4
92.7 relative, HeCon Ab = 100	B5
71.9 relative, HeCon Ab = 100	B6
99.4 relative, HeCon Ab = 100	B7
81.9 relative, HeCon Ab = 100	B8
102 relative, HeCon Ab = 100	B9
97.7 relative, HeCon Ab = 100	B10
91.3 relative, HeCon Ab = 100	B11
94.2 relative, HeCon Ab = 100	B12
90.6 relative, HeCon Ab = 100	B13
89.1 relative, HeCon Ab = 100	B14
100 relative, HeCon Ab = 100	B15
79.3 relative, HeCon Ab = 100	B16
92.7 relative, HeCon Ab = 100	B17
91.8 relative, HeCon Ab = 100	B18
93.3 relative, HeCon Ab = 100	B19
91.4 relative, HeCon Ab = 100	B20
96.7 relative, HeCon Ab = 100	B21
64.4 relative, HeCon Ab = 100	B22

target: T1, FcγRIIb; experiment: as above

He/Con_2b	Binder
1.1 relative, HeCon Ab = 100	B1
12.2 relative, HeCon Ab = 100	B2
65.7 relative, HeCon Ab = 100	B3
69.7 relative, HeCon Ab = 100	B4
45.1 relative, HeCon Ab = 100	B5
0.4 relative, HeCon Ab = 100	B6
57.2 relative, HeCon Ab = 100	B7
15.2 relative, HeCon Ab = 100	B8
47.7 relative, HeCon Ab = 100	B9
48 relative, HeCon Ab = 100	B10
51.5 relative, HeCon Ab = 100	B11
37.9 relative, HeCon Ab = 100	B12
54.4 relative, HeCon Ab = 100	B13
57.2 relative, HeCon Ab = 100	B14
65.9 relative, HeCon Ab = 100	B15
10.1 relative, HeCon Ab = 100	B16
11.3 relative, HeCon Ab = 100	B17
31.5 relative, HeCon Ab = 100	B18
49.4 relative, HeCon Ab = 100	B19
71.9 relative, HeCon Ab = 100	B20
57.6 relative, HeCon Ab = 100	B21
1 relative, HeCon Ab = 100	B22

target: T4, FcγRIa extracellular domain with C-terminal His tag (human, UniProt P12314 16-292); experiment: SPR (Biacore), antibody captured on antigen-peptide chip, FcγR as analyte; relative binding
T4 construct: extracellular domain; Expressed in FreeStyle293 cells; analyte in the Biacore assay; also called FcgRI; 1a; not shown: His tag at the C terminus
T4 sequence (P12314 16-292): as above

He/Con_1a	Binder
104 % of GpH7-A5/GpH7-B3/GpL16-k0 (=100)	B23
104 % of GpH7-A5/GpH7-B3/GpL16-k0 (=100)	B24
102 % of GpH7-A5/GpH7-B3/GpL16-k0 (=100)	B25
104 % of GpH7-A5/GpH7-B3/GpL16-k0 (=100)	B26
103 % of GpH7-A5/GpH7-B3/GpL16-k0 (=100)	B27
104 % of GpH7-A5/GpH7-B3/GpL16-k0 (=100)	B28
103 % of GpH7-A5/GpH7-B3/GpL16-k0 (=100)	B29
95.2 % of GpH7-A5/GpH7-B3/GpL16-k0 (=100)	B30
106 % of GpH7-A5/GpH7-B3/GpL16-k0 (=100)	B31
97.1 % of GpH7-A5/GpH7-B3/GpL16-k0 (=100)	B32
103 % of GpH7-A5/GpH7-B3/GpL16-k0 (=100)	B33
106 % of GpH7-A5/GpH7-B3/GpL16-k0 (=100)	B34
106 % of GpH7-A5/GpH7-B3/GpL16-k0 (=100)	B35
103 % of GpH7-A5/GpH7-B3/GpL16-k0 (=100)	B36

target: T2, FcγRIIb extracellular domain with …; experiment: as above

He/Con_2b	Binder
51.5 % of GpH7-A5/GpH7-B3/GpL16-k0 (=100)	B23
49.9 % of GpH7-A5/GpH7-B3/GpL16-k0 (=100)	B24
52.6 % of GpH7-A5/GpH7-B3/GpL16-k0 (=100)	B25
42.9 % of GpH7-A5/GpH7-B3/GpL16-k0 (=100)	B26
47.8 % of GpH7-A5/GpH7-B3/GpL16-k0 (=100)	B27
46.7 % of GpH7-A5/GpH7-B3/GpL16-k0 (=100)	B28
45 % of GpH7-A5/GpH7-B3/GpL16-k0 (=100)	B29
17.8 % of GpH7-A5/GpH7-B3/GpL16-k0 (=100)	B30
50.6 % of GpH7-A5/GpH7-B3/GpL16-k0 (=100)	B31
25.2 % of GpH7-A5/GpH7-B3/GpL16-k0 (=100)	B32
45.1 % of GpH7-A5/GpH7-B3/GpL16-k0 (=100)	B33
38.5 % of GpH7-A5/GpH7-B3/GpL16-k0 (=100)	B34
44.7 % of GpH7-A5/GpH7-B3/GpL16-k0 (=100)	B35
43.9 % of GpH7-A5/GpH7-B3/GpL16-k0 (=100)	B36
